Numbering of substitutions follows the chain as printed.
Experiments:
Test in all cases: EMSA
MotA K3E = target: T1, MotA K3E (bacteriophage T4, UniProt P22915 1-211, K3E)
T1 sequence: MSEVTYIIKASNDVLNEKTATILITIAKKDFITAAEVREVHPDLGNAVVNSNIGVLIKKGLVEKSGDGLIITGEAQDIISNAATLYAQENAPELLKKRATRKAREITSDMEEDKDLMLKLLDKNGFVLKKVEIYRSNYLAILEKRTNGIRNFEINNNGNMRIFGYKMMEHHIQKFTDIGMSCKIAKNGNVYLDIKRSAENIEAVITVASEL

MotA K28E = target: T2, MotA K28E (bacteriophage T4, UniProt P22915 1-211, K28E)
T2 sequence: T1 sequence with E3K, K28E

MotA K59E = target: T3, MotA K59E (bacteriophage T4, UniProt P22915 1-211, K59E)
T3 sequence: T1 sequence with E3K, K59E

MotA S80R = target: T4, MotA S80R (bacteriophage T4, UniProt P22915 1-211, S80R)
T4 sequence: T1 sequence with E3K, S80R

MotA Q76R = target: T5, MotA Q76R (bacteriophage T4, UniProt P22915 1-211, Q76R)
T5 sequence: T1 sequence with E3K, Q76R

MotA D43K = target: T6, MotA D43K (bacteriophage T4, UniProt P22915 1-211, D43K)
T6 sequence: T1 sequence with E3K, D43K

B1: 21 bp MotA box DNA (dsDNA)
DNA 1: GAATTATTTGCTTTAGATTAC
DNA 2: GTAATCTAAAGCAAATAATTC
Question: For B1, which Kd (MotA K3E) is on record?
Answer: ~500 nM

Question: What about the Kd (MotA K28E) of the same binder?
Answer: ~500 nM

Question: And the Kd (MotA K59E)?
Answer: ~500 nM

Question: What about the Kd (MotA S80R) of the same binder?
Answer: ~600 nM

Question: What about the Kd (MotA Q76R) of the same binder?
Answer: ~600 nM

Question: What about the Kd (MotA D43K) of the same binder?
Answer: ~500 nM

From PMC2631437 (Molecular microbiology, 2008)
